For assay [1], the target named is T1, extracellular region of human TIGIT fused to the Fc region of human immunoglobulin gamma-1 chain (hTIGIT-Fc) (human).
T1 construct: also called human TIGIT-Fc fusion protein; wild-type TIGIT-Fc
Kind of assay: ELISA, plate coated with 5 µg/ml hTIGIT-Fc. On the procedure: Binding of HuTIG1-IgG1.AA to human TIGIT was examined by ELISA. An ELISA plate was coated with 5 μg/ml hTIGIT-Fc in PBS (100 μl/well) at 4° C. overnight, washed with Wash Buffer (PBS containing 0.05% Tween 20), and blocked with 200 μl/well of SuperBlock Blocking Buffer (Thermo Fisher Scientific). After washing wells with Wash Buffer, HuTIG1-IgG1.AA, starting at 2.5 μg/ml and serial 2-fold dilutions in SuperBlock Blocking Buffer, was added for binding to plate-bound human TIGIT. After incubating the ELISA plate for 1 hr at room temperature and washing with Wash Buffer, bound antibodies were detected with 100 μl/well of HRP-conjugated goat anti-human kappa chain polyclonal antibody (Southern Biotech), 1/2,000-diluted in ELISA Buffer. After incubating for 30 min at room temperature and washing with Wash Buffer, color development was initiated with 100 μl/well of ABTS substrate and stopped with 100 μl/well of 2% oxalic acid. Absorbance was read at 405 nm. […] The half maximal effective concentration (EC₅₀) of HuTIG1-IgG1.AA for binding to TIGIT was 65 ng/ml.

The target of assay [2] is T2, His-tagged soluble recombinant human TIGIT (Cat # TIT-H52H3; Acro Biosystems) (human, UniProt Q495A1 22-141).
T2 construct: Bought reagent; not shown: His tag
T2 sequence (looked up): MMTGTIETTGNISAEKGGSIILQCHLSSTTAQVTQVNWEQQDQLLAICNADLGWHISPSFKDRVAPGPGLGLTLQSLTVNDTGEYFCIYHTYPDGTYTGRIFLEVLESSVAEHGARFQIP
Kind of assay: SPR (BioRad ProteOn XPR36), antibody captured by anti-human IgG, soluble TIGIT as analyte, 25 °C, 1:1 model. On the procedure:
Biosensor studies for HuTIG1-IgG1.AA were run on a BioRad ProteOn XPR36 system in 10 mM HEPES, 150 mM NaCl, pH 7.4, 0.005% Tween-20 and 0.2 mg/ml BSA at 25° C. HuTIG1-IgG1.AA was diluted to 3.7, 1.2 and 0.4 nM and captured for 5 minutes onto a GLM sensor chip coated with ˜10,000 RU of GE's anti-human IgG antibody. His-tagged soluble recombinant human TIGIT (Cat # TIT-H52H3; Acro Biosystems, Newark, Del.) was tested at 100 nM as the highest concentration in a 3-fold dilution series down to 1.2 nM. The data from the three different density antibody surfaces were globally fit to a 1:1 interaction model using a local Rmax.

B1: HuTIG1-IgG1.AA (humanized IgG1/kappa form of TIG1, L234A/L235A) (antibody)
heavy: not shown
light: DIQMTQSPSSLSASVGDRVTITCRASKSISKYLAWYQQKPGKAPKLLIYSGSTLQSGVPSRFSGSGSGTDFTLTISSLQPEDFATYYCQQHNEYPWTFGGGTKVEIKRTVAAPSVFIFPPSDEQLKSGTASVVCLLNNFYPREAKVQWKVDNALQSGNSQESVTEQDSKDSTYSLSSTLTLSKADYEKHKVYACEVTHQGLSSPVTKSFNRGEC
notes: Mature full chains; also called humanized TIG1
B1 gave an EC50 in assay [1] of 0.065 µg/mL. In addition, in assay [2], the equilibrium dissociation constant (Kd) stood at 0.925 nM, the koff worked out at 0.000409 s⁻¹ and the kon is 442000 M⁻¹ s⁻¹.

The record behind these values is patent publication US20170281764A1 (JN BIOSCIENCES, published 2017).
